First the molecules themselves.
B1: Azoarcus group I ribozyme (parent)
chain: GUGCCUUGCGCCGGGAAACCACGCAAGGGAUGGUGUCAAAUUCGGCGAAACCUAAGCGCCCGCCCGGGCGUAUGGCAACGCCGAGCCAAGCUUCGGCGCCUGCGCCGAUGAAGGUGUAGAGACUAGACGGCACCCACCUAAGGCAAACGCUAUGGUGAAGGCAUAGUCCAGGGAGUGGCGAAAGUCACACAAACCGG

In the series the parent is B1. As to the kind of experiment: reverse-splicing fitness (ratio to wild type); higher = more active; in vitro selection; Mg2+ level not given. The procedure, abridged:
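An in vitro group I ribozyme library with randomized positions was T7-transcribed and gel-purified. In triplicate, 10 pmol RNA in EPPS pH 7.5 was reacted with 50 pmoles of a 30-nt RNA substrate for 1 h at 37 °C across several added MgCl2 levels (1–48 mM), then stopped with EDTA. Products were reverse transcribed from a substrate-complementary primer, PCR-amplified and sequenced (HiSeq 4000). Fitness is a variant's read proportion after selection over that before, normalised to wild type.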
GUGCCUUGCGCCGGGAAACCACGCAAGGGAUGGUGUCAAAUUCGGCGAAACCUAAGCGCCCGCCCGGGCGUAUGGCAACGCUGAGCCAAGCUUCGGCGCCUGCGCCGAUGAAGGUGUAGAGACUAGACGGCACCCACCUAAGGCAAACGGUAUGGUGAAGGCAUAGUCCAGGGAGGGGCGAAAGUCACACAAACCGG [C82U C150G U176G]: the reverse-splicing fitness came out at 0.00652.

Take GUGCCUUGCGCCGGGAAACCACGCAAGGGAUGGUGUCAAAUUCGGCGAAACCUAAGCGCCCGCCCGGGCGUAUGGCAACGCUGAGCCAAGCUUCGGCGCCUGCGCCGAUGCAGGUGUAGGGACUAGACGGCACCCACCUAAGGCCAACGCUAUGGUGAAGGCAUAGUCUAGGGAGUGGCGAAAGUCACACAAACCGG [C82U A111C A120G A145C C169U]: the reverse-splicing fitness is 0.007.

GUGCCUUGCGCCGGGAAACCACGCAAGGGAUGGUGUCAAAUUCGGCGAAACCUAAGCGCCCGCCCGGGCGUAUGGCAACGCUGAGCCAAGCUUCGGCGCCUGCGCCGAUGGAGGUGUAGAGACUAGACGGCACCCACCUAAGGCUAACGCUAUGGUGAAGGCAUAGUCAAGGGAGGGGCGAAAGUCACACAAACCGG [C82U A111G A145U C169A U176G]: the reverse-splicing fitness worked out at 0.00528.

For GUGCCUUGCGCCGGGAAACCACGCAAGGGAUGGUGUCAAAUUCGGCGAAACCUAAGCGCCCGCCCGGGCGUAUGGCAACGCAGAGCCAAGCUUCGGCGCCUGCGCCGAUGAAGGUGUAGGGACUAGACGGCACCCACCUAAGGCCAACGAUAUGGUGAAGGCAUAGUCAAGGGAGCGGCGAAAGUCACACAAACCGG [C82A A120G A145C C150A C169A U176C], the reverse-splicing fitness turned out to be 0.00527.

As to GUGCCUUGCGCCGGGAAACCACGCAAGGGAUGGUGUCAAAUUCGGCGAAACCUAAGCGCCCGCCCGGGCGUAUGGCAACGCGGAGCCAAGCUUCGGCGCCUGCGCCGAUGCAGGUGUAGUGACUAGACGGCACCCACCUAAGGCCAACGAUAUGGUGAAGGCAUAGUCAAGGGAGUGGCGAAAGUCACACAAACCGG [C82G A111C A120U A145C C150A C169A], the reverse-splicing fitness was determined as 0.00203.

In the case of GUGCCUUGCGCCGGGAAACCACGCAAGGGAUGGUGUCAAAUUCGGCGAAACCUAAGCGCCCGCCCGGGCGUAUGGCAACGCCGAGCCAAGCUUCGGCGCCUGCGCCGAUGAAGGUGUAGCGACUAGACGGCACCCACCUAAGGCAAACGUUAUGGUGAAGGCAUAGUCGAGGGAGGGGCGAAAGUCACACAAACCGG [A120C C150U C169G U176G], the reverse-splicing fitness was found to be 0.00427.

Take GUGCCUUGCGCCGGGAAACCACGCAAGGGAUGGUGUCAAAUUCGGCGAAACCUAAGCGCCCGCCCGGGCGUAUGGCAACGCUGAGCCAAGCUUCGGCGCCUGCGCCGAUGCAGGUGUAGCGACUAGACGGCACCCACCUAAGGCGAACGGUAUGGUGAAGGCAUAGUCCAGGGAGGGGCGAAAGUCACACAAACCGG [C82U A111C A120C A145G C150G U176G]: the reverse-splicing fitness amounted to 0.00622.

Turning to GUGCCUUGCGCCGGGAAACCACGCAAGGGAUGGUGUCAAAUUCGGCGAAACCUAAGCGCCCGCCCGGGCGUAUGGCAACGCAGAGCCAAGCUUCGGCGCCUGCGCCGAUGUAGGUGUAGAGACUAGACGGCACCCACCUAAGGCUAACGAUAUGGUGAAGGCAUAGUCCAGGGAGCGGCGAAAGUCACACAAACCGG [C82A A111U A145U C150A U176C], the reverse-splicing fitness amounted to 0.0251.

Regarding GUGCCUUGCGCCGGGAAACCACGCAAGGGAUGGUGUCAAAUUCGGCGAAACCUAAGCGCCCGCCCGGGCGUAUGGCAACGCGGAGCCAAGCUUCGGCGCCUGCGCCGAUGUAGGUGUAGUGACUAGACGGCACCCACCUAAGGCUAACGCUAUGGUGAAGGCAUAGUCAAGGGAGAGGCGAAAGUCACACAAACCGG [C82G A111U A120U A145U C169A U176A], the reverse-splicing fitness is 0.00292.

With GUGCCUUGCGCCGGGAAACCACGCAAGGGAUGGUGUCAAAUUCGGCGAAACCUAAGCGCCCGCCCGGGCGUAUGGCAACGCUGAGCCAAGCUUCGGCGCCUGCGCCGAUGGAGGUGUAGGGACUAGACGGCACCCACCUAAGGCCAACGAUAUGGUGAAGGCAUAGUCCAGGGAGCGGCGAAAGUCACACAAACCGG [C82U A111G A120G A145C C150A U176C], the reverse-splicing fitness is 0.00818.

Take GUGCCUUGCGCCGGGAAACCACGCAAGGGAUGGUGUCAAAUUCGGCGAAACCUAAGCGCCCGCCCGGGCGUAUGGCAACGCAGAGCCAAGCUUCGGCGCCUGCGCCGAUGUAGGUGUAGGGACUAGACGGCACCCACCUAAGGCAAACGAUAUGGUGAAGGCAUAGUCGAGGGAGGGGCGAAAGUCACACAAACCGG [C82A A111U A120G C150A C169G U176G]: the reverse-splicing fitness came out at 0.0059.

As to GUGCCUUGCGCCGGGAAACCACGCAAGGGAUGGUGUCAAAUUCGGCGAAACCUAAGCGCCCGCCCGGGCGUAUGGCAACGCUGAGCCAAGCUUCGGCGCCUGCGCCGAUGGAGGUGUAGAGACUAGACGGCACCCACCUAAGGCGAACGCUAUGGUGAAGGCAUAGUCCAGGGAGCGGCGAAAGUCACACAAACCGG [C82U A111G A145G U176C], the reverse-splicing fitness was 0.265.

Consider GUGCCUUGCGCCGGGAAACCACGCAAGGGAUGGUGUCAAAUUCGGCGAAACCUAAGCGCCCGCCCGGGCGUAUGGCAACGCGGAGCCAAGCUUCGGCGCCUGCGCCGAUGGAGGUGUAGAGACUAGACGGCACCCACCUAAGGCCAACGCUAUGGUGAAGGCAUAGUCCAGGGAGCGGCGAAAGUCACACAAACCGG [C82G A111G A145C U176C], for which the reverse-splicing fitness was found to be 0.258.

Consider GUGCCUUGCGCCGGGAAACCACGCAAGGGAUGGUGUCAAAUUCGGCGAAACCUAAGCGCCCGCCCGGGCGUAUGGCAACGCCGAGCCAAGCUUCGGCGCCUGCGCCGAUGUAGGUGUAGUGACUAGACGGCACCCACCUAAGGCGAACGCUAUGGUGAAGGCAUAGUCUAGGGAGCGGCGAAAGUCACACAAACCGG [A111U A120U A145G C169U U176C], for which the reverse-splicing fitness came out at 0.0176.

For the variant GUGCCUUGCGCCGGGAAACCACGCAAGGGAUGGUGUCAAAUUCGGCGAAACCUAAGCGCCCGCCCGGGCGUAUGGCAACGCUGAGCCAAGCUUCGGCGCCUGCGCCGAUGUAGGUGUAGCGACUAGACGGCACCCACCUAAGGCGAACGAUAUGGUGAAGGCAUAGUCGAGGGAGGGGCGAAAGUCACACAAACCGG [C82U A111U A120C A145G C150A C169G U176G], the reverse-splicing fitness amounted to 0.00516.

(Values after the RNAGym collection of RNA variant scans (doi:10.1093/molbev/msab373).)
